The series can be described thus: yeast display, Sf9 membrane polyspecificity reagent, FACS + sequencing; frameworks hold sequencing errors. The method in brief: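 Synthetic nanobody libraries on Saccharomyces cerevisiae BJ5465 were galactose-induced for 36–48 hours, stained 1 hour at 4 °C with 10% biotinylated, detergent-solubilized Sf9 membrane reagent and enriched on streptavidin microbeads. FACS then separated cells into low and high (top ~1%) gates by anti-HA (expression) and streptavidin (reagent binding) fluorescence. Genes were colony-PCR amplified, MiSeq 2 × 250 sequenced and CDR-length filtered. A clone's polyreactivity label is that of its gate of origin.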
For the sequence “QVQLVESGGGLVQAGGSLRLSCAASGSTMGRYAMGWYRQAPGKERELVASITWSDDSTYYADSVKGRFTISRDNAKNTVYLQMNSLKPEDTAVYYCAAAGNLYTYRFYYWGQGTQVTVSS”, the “polyreactivity (PSR sort gate)” value was “low polyreactivity”.
Turning to “QVQLVESGGGLVQAGGILRLSCAASGSTFPFYAMGWYRQAPGKVRELVASINSDGSTNYADSVKGRFTISRDNAKNTVYLQMNSLKPEDTAVYYCAAGWQTRFYSRYYYWGQGTQVTVSS”, the “polyreactivity (PSR sort gate)” value is listed as “high polyreactivity”.
For the sequence “QVQLVESGGGLVQAGGSLRLSCAASGRTFRYNRMGWYRQAPGKERELVAAITGGGSTYYADSVKGRFTISRDNAKNTVYLQMNSLKPEDTPVYYCAKRRWYRYDYWGQGTQVTVSS”, the “polyreactivity (PSR sort gate)” value was “high polyreactivity”.
As to “QVQLVESGGGLVQAGGSLRLSCAASGVIFKPSAMGWYRQAPGKERELVASISTGARTYYADSVKGRFTISRDTAKNTVYLQLNSLKPEDTAVYYCAAAYSRWITRYDYWGQGTQVTVSS”, the “polyreactivity (PSR sort gate)” value was “high polyreactivity”.
For the sequence “QVQLVDSGGGLVQAGGSLRLSCAASGSIFSVNAMGWYRQAPGKERQLVAAISVRGGRTYYADSVKGRFTISRDNAKNTVYLQMNSLIPEDTAVYYCATRISTVGRYDYWGQGTQVTVSS”, the “polyreactivity (PSR sort gate)” value is listed as “high polyreactivity”.
For “QDQLVESGGGLVQAGGSLRLSIAASVRIFYANAMGWYRQAPGQERELVAAISSGGSTYYADSVKGRFTISRDNAKNTVYLQMNSLKPEDTAVFYCAVYTHKKVRPEYDYWGQGTQVTVSS”, the “polyreactivity (PSR sort gate)” value is “low polyreactivity”.
To “QVQLVESGGGLVQAGGSLRLSCAASGFIFNRYVMGWYRQAPGKERELVAVISRGGSTSYADSVKGRFTISRDNAKNTVYLQMNSLKPEDTAVYYCNAVHSRVYYSLGYGYWGLGTQVTVSS” belongs “high polyreactivity”.
In the case of “QVQLVESGGRLVQEGGSLRLSCAASGRTLYDYAMGWYRQAPGKERELVAGITWRGGSTSYAASVKGRFTISRDNAKNTVYLEMNSLKPEDTAVYDCATDGDERMDYWGQGTQVTVAS”, the “polyreactivity (PSR sort gate)” value is given as “low polyreactivity”.
Consider “QVQLVESGGGLVQAGGSLRLSCAASGRIFQGNAMGWYRQATGKERELVAAITTSGGSTYYADSVKGRFTISRDNAKNTVYLQMNSLKPEDTAVYYCNVDPRKRSYDYWGQGTQVTVSS”, for which the “polyreactivity (PSR sort gate)” value is “high polyreactivity”.
To “QVQLVESGGGLVQAGGSLRLSCAASGRTFEANAMGWYRQAPGKERELVASISRSGGNTYYADSVKGRFTISRDNAKNTGYLQMNSLKPEDTAVYYCAARFRVGQRRFNYWGQGTQVTVSS” belongs “high polyreactivity”; to “QVQLVESGGGLVQAGGSLRLSCAASGRIFGYNAMGWYRQAPGKERELVAAITNGGSTNYADSVKGRFTISRDNAKNTVYLQMNSLKPEDTAVYYCAVKWYPPGHDYWGQGTQVTVSS”, “low polyreactivity”.
As to “QVQLVESGGGLVQAGGSLRLSCAASGRTIGVYAMGWYRQAPGKERELVAAISWSGGTTYYADSVKGRFTISRDNAKYTVYLQMNSLKPEDTAVYYCAADSYTEVDYWGQGTQVTVSS”, the “polyreactivity (PSR sort gate)” value is given as “low polyreactivity”.
To “QVQHVESGAGLVQAGGSLRLSCAASGRTFYYYAMGWYRQAPGKERELVAAISTNGGSTSYADSVKGRFTISRDNAKNTVYLQMNSLKPEDSAVYYSAAYYRTPTDVEYDYWGQGTQVTVSS” belongs “high polyreactivity”; to “QVQLVESGGGLVQAGGSLRLSCAASGRTFDRYTMGWYRRAPGKERELVATIRSTGSTYYADSVKGRFTISRDNAKNTVYLQMNSLKTEDTAVYYCNRKYRSSLPYGDGYWGQGTQVTVSS”, “low polyreactivity”; to “QVQLVESVGGLVQAGGSLRLSCAASGFTFHGYAMGWYRQAAGKERELVAAIRSGDRTYYADSVKGRFTISRDNAKNTVYLQMNSLKPEDTAVYYCDAGSYFRDSYARIYRWFYYWGQGTQVTVSS”, “low polyreactivity”.
To “QVQLVESGGGLVQAGGSLRLSCAASGSIFYQNAMGWSRQAPGKEWELVAAISWSGGSTYYADSVKGRFTISRDNAKNTDFLQMNSLKPEDTAVYYCNKYVRFRGGAYVTGYDYWGQGTQVTVSS” belongs “high polyreactivity”; to “QVQLVESGGGLVQAGGSLRLSCAASGFIFQKYAMGWYRQAPGKERELVAAITKRGGSTYYADSVKGRFTISRDNAKNTVYLQMNSLKPEDTAVYYCAAYAYDYEYDYWGQGTQVTVSS”, “high polyreactivity”; to “QVQLVESGGGLVQAGGSLRLSCAASGITFLTYAMGWYRQSPGKDRELVASITYSGGTTYYADSVKGRFTISRDNAKNTVYLQMNSLQPEDTAVYYCNTDWRTSVGYDYWGQGTQVTVSS”, “low polyreactivity”.
To “QVQLVESGGGLVQAGGSLRLSCAASGRTFYYNAMGWDRQAPGKESELVARITYRSGRTNYADSVKGRFTISRDNAKNTVYLQMNSLKPEDTAVYYCAAAWWCGAGRTRYEYWGQGTQVTVSS” belongs “high polyreactivity”.
Take “QVQLVESGRGLVQAGGSLRLSCAASGFTFKSYAKGWYRHATGKVRELVAAISRGTSTKYADSVKGRFTISRDNAKNTVYLQMNSLKPEDSAVYNCAALFPTSDLRLRYYRYDYWGQGTQVTVSS”: the “polyreactivity (PSR sort gate)” value is listed as “low polyreactivity”.
As for “QVQLVESGGGLVQAGGSLRLSCAASGRISVVNAMGWYRQAPGQERELVAAIRRASTNYADSVKGRFTISRDNAKKTVYLQMNSLKPEDTAVYYCAARVYGINIFEYWGQATQVTVSS”, the “polyreactivity (PSR sort gate)” value is “high polyreactivity”.
To “QVQIVESGGGLVQAGGSLRLSCAASGFTFYGYAMGLYRQAPGKERELVATISGRGGRTYYADSVKGLFTISRDNAKNTVYLQMNSLKPVDTAVYFCAAVSSYRYYGDYYWGQGTQVTVSS” belongs “high polyreactivity”.
“QVQLVESGGGLVQAGGSLRLSCAASGSIFKDYAMGWYRQAPGKERELVASITSGGRTYADSVKGRFTISRDNAKNTVYLQMNSLKPEDTAVYYCNTAHSKAWQYDYWGQGTQVTVSS”: the “polyreactivity (PSR sort gate)” value is listed as “high polyreactivity”.
With “QVQLVDSGGGLVQAGGILRLSSPASGSTFKYYTMGRSRQAPGKEREWVAGITLSGPTTYYADSVKGRFTISRDNAKNTVYLQMNSLKPEDTAVYYCAADYYHDFNAYYYWGQGTQVTVSS”, the “polyreactivity (PSR sort gate)” value is given as “low polyreactivity”.
Regarding “QVQRVESGGGLVQAGGSLRLSCAASGLIFGGYAMGWYRQAPGKERELVAAITSGGSTKYADSVKGRFTISRDNAKNTVYLQMNSLKPEDTAVYYCAASGWRNWWSARNYYWGQGTQVTVSS”, the “polyreactivity (PSR sort gate)” value is on record as “low polyreactivity”.
To “QVQLVESGGGLVQAGGSLRLSCAATGSTFIDNARGWYRQAPGKERELVAAINSSGGNTYYADSVKGRFTISRDNAKNTVYLQMNSLKPEDTAVYYCNAEFSVLYFYDYEYWGQGTQVTVSS” belongs “low polyreactivity”; to “QVQLVESGGGLVQAGGSLRLSCAASGRIFVPNAMGWYSQAPGKERELVAAINWGGGSTYYADSVKGRFTISRDNAKNTVYLQMNSLKPEDTAVYYCAADHPYTIGVLPNQQFDYWGQGTQVTVSS”, “low polyreactivity”; to “QVQLVESGGGLVQAGGSLRLSCAASGSTFNINVMGWYRQAPGKERELVASISTGDITYYADSVKGRFTISRDNAKNTVYLQMNSLKPEDTAVYYCNAEDDLYWWVWYAVGEEYWGQGTQVTVSS”, “low polyreactivity”.
For the sequence “QVQLVESGGGLVQAGGSLRLSCAASGFTFLSYTMGWYRQAPGKERELVASITASGTRTYYADSVKGRFTISRDNAKNTVYLQMNSLKPEDTAVYYCNRVGFDYWGQGTQVTVSS”, the “polyreactivity (PSR sort gate)” value is “low polyreactivity”.
Turning to “QVQLQDSCGGLVQAGGSLRLNCATSGTIFVLWYMGWYRQAPGKERELVATINHGANTYSADSVKGRFTINRDNGNSTVYLQMNSLQPEDTAVYYCAVYAIIVWGLGYWGQGTQVTVSS”, the “polyreactivity (PSR sort gate)” value is reported as “high polyreactivity”.
In the case of “QVQLVESGGGLVQAGGSLRLSCAASGSTFIDYDMGWYRQAPGKERELVAAITSSGSTYYADSVKGRFTISRDNAKNTVYLQMNSLKPEDTAVYYCNARVGPELHDYWGQGTQVTVSS”, the “polyreactivity (PSR sort gate)” value was “low polyreactivity”.
Turning to “QVQLVESGGGLVQAGGSLRLSCAASGSTFDRYAMGWYRQAPGKERELVAAITRGGSTYYADSVKGRFTISRDNAKNTVYLQMNSLKPEDTAVYYCAARYRAYVKLTSYDWGQGTQVTVSS”, the “polyreactivity (PSR sort gate)” value is recorded as “high polyreactivity”.
For the sequence “QVQLEESGGGLVQAGGSLRLSCAASGSTIFGNTMGWYRQAPGKERELVATITRRGGSTYYADSVKGRFTISRDNAKNTVYLQMNSLKPEDTAVYYCAKRGPYTKYDYWGQGTQVTVSS”, the “polyreactivity (PSR sort gate)” value was “low polyreactivity”.
Regarding “QVQLVESGGGLVQAGGSLRLSCAASGRTFYIYAMGWYRQAPGKERELVAAITYGGGRTFYADSVKGRFTISRDNAKNTVYLQMNSLKPEDTAVYYCARGDFYYHSRYTYYTSDYWGQGTQVTVSS”, the “polyreactivity (PSR sort gate)” value is on record as “high polyreactivity”.
On to “QVQLVESGGGLVQAGGSLRLSCAASGFIFQRYAMGWYRQAPGKERELVAAISWSGGITYYADSVKGRFTISRDNAKNTVYLQMHSLKPEDTAVYYCAAGLAVGDYYWGQGTQVTVSS”, for which the “polyreactivity (PSR sort gate)” value is “high polyreactivity”.
Consider “QVQLVESGGGLVQAGGSLRLSCAASGIIFYIYAMGWYRQAPGKERELVATISNDGGSTYYADSVKGRFTISRDNAKNTVYLQMNSLKPEDTAFFYCNADFADDKNYLFESELEYDYWGQGTQVTVSS”, for which the “polyreactivity (PSR sort gate)” value is “low polyreactivity”.
To “QVQLVESGGGLVQAGGSLRLSCAASGSTFAFYDMGWYRQAPGKERELVAAISQSDGDTYYADSVKGRFTISRDNAKNTVYLQMNSLKPEDTAVYYCAAETSHNPEYERGSDYWGQGTQVTVSS” belongs “low polyreactivity”; to “QVQLVESGGGLVQAGGSLRLSCAASGYTFGYNALGWYRQAPGKERELVAAISNGGSTNYADSVKGRFTISRDNAKNTVYLQMNSLKPEDTAVYYCAAASRLHIGYWRYDFWGQGTQVTVSS”, “low polyreactivity”.
For “QVQLVESGGGLVQAGGSLRLSCAASGSILLDNAMGWSRQAPGKERELVAAISLSGGGSTYYADSVKGRFTISRDNAKNTVYLQMNSLKPEATAVYYCAAASTYPLPYDYWGQGTQVTVSS”, the “polyreactivity (PSR sort gate)” value is “low polyreactivity”.
To “QVQLVESGGGLVQAGGSLRLICAASGSTFARNAMGWYRQAPGKERELVAAITTRGSSTYYADSVKGRFTISRDNAKNTVYLQMNSLKPEDTAVYYCAADSRRSWYWGGYRQTGMGYWGQGTQLTVSS” belongs “high polyreactivity”.
With “QVQLVESGGGLVQAGGSLRLSCAASGITFGRNTMGWYRQAPGKERELVAAIDSGGNTYADSVKGRFTISRDNAKNTVYLLMNSLKPDDTAVYYCAVDGGEFSSYVYWGQGTQVTVSS”, the “polyreactivity (PSR sort gate)” value is listed as “low polyreactivity”.

Values taken from the nanobody polyreactivity screen of Harvey et al. (2022).
